# Experimental data: US20140235490A1
# Target: Firefly luciferase fragment FFL (265-550) (Photinus pyralis) [luciferase: P08659]
# Assay: cell-based or functional assay
# Sequence of Firefly luciferase fragment FFL (265-550) (Photinus pyralis) [luciferase: P08659] (P08659 265-550): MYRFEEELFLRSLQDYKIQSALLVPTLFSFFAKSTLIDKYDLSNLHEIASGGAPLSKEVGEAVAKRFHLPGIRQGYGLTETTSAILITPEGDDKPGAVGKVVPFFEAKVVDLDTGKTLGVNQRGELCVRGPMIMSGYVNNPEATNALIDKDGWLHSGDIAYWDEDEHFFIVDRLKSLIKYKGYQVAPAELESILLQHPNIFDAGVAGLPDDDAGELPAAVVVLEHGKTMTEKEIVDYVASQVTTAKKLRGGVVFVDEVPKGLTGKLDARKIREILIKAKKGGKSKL
# Sequence of Firefly luciferase fragment FFL (1-478) (P08659 1-478): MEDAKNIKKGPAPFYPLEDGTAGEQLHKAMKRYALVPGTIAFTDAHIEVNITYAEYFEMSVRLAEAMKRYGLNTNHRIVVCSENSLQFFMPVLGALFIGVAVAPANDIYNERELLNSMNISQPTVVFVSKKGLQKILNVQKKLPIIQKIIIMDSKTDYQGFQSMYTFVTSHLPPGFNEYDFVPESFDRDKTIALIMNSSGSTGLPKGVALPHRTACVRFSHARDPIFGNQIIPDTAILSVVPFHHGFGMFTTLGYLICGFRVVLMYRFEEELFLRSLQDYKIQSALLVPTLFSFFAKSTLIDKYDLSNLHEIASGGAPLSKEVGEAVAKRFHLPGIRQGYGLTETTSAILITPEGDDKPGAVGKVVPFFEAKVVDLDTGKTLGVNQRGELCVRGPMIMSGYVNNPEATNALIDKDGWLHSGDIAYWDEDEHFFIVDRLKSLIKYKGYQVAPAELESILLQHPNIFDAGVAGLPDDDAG
substance,measurement,value
Firefly luciferase fragment FFL (1-478) (from UniProt P08659 1-478),luciferase activity after recombination of the fragments,< 4%
